Results reported in paper PMC7118729.

Molecular target: SARS-CoV non-structural protein 15 (Nsp15) [change] (SARS-CoV)
Assay: SEC

## SARS-CoV non-structural protein 15 (Nsp15) [change] (enzyme)
  stoichiometry N: 3
